Source: patent US9186390B2, “Methods and uses of TIE2 binding and/or activating agents” (Sunnybrook Health Sciences Center, priority 2010, dated 2015)

Test system: AT derm mice (pTek-tTA:pTetOS-Tek)
Experiment: Enforced expression of Ang1 or Ang2 in AT derm mice (triple transgenic)
Format: in vivo
Details: for atopic dermatitis phenotype (erythema, ear micro-haemorrhages, tail scaly plaque): transgenic overexpression in the vasculature of AT derm mice
From the text: Briefly, construction of the driver transgene, pTek-tTA, and the responder transgenes, pTetOS-Tek, pTetos-Ang1, and pTetos-Ang2 have been described previously. All transgenic lines were maintained and genotyped as previously described (Voskas et al. (2005) Am. J. Pathol. 166(3):843-855, Ward et al. (2004) Am. J. Pathol. 165(3):889-899, Bureau et al. (2006) Am. J. Physiol. Heart Circ. Physiol. 291(2):H948-965). Males were housed with a single female for 14 to 20 days and then separated into individual cages. CD1 mice (an outbred mouse line) were maintained in a barrier facility. All adult mice used in these studies were 2 to 6 months old.
The present inventors have previously shown that enforced overexpression of the Tie2 receptor in the vasculature results in an inflammatory skin phenotype in mice (FIG. 3A) that is consistent with many hallmarks of human atopic dermatitis/psoriasis (Voskas et al. (2005) Am. J. Pathol. 166(3), 843-855, Voskas et al. (2009) J. Leukoc. Biol. 84(1), 59-67). […] Using common mouse transgenic approaches, a system was devised in which the impact of enforced expression of Ang1 or Ang2 could be assessed in this mouse model of inflammatory skin disease. This is the first such system where the implications of Ang1 or Ang2 expression can be simultaneously addressed in a single pathological state. […] This was marked by a gross reduction in snout, conjunctiva, ear and paw erythema (FIGS. 3C-E).

| Molecule | atopic dermatitis phenotype (erythema, ear micro-haemorrhages, tail scaly plaque) | epidermal hyperplasia and dermal leukocyte infiltration (histology) (triple transgenic mice) |
| --- | --- | --- |
| Ang2: Angiopoietin 2, natural antagonist of Ang1, overexpressed from the pTetOS-Ang2 transgene | exacerbated all of the noted phenotypic hallmarks | – |
| Ang1: Angiopoietin 1, Tie2 ligand, overexpressed in the vasculature from the pTetOS-Ang1 transgene (protein, UniProt Q15389 16-498, looked up) Angiopoietin-1: HIGCSNQRRSPENSGRRYNRIQHGQCAYTFILPEHDGNCRESTTDQYNTNALQRDAPHVEPDFSSQKLQHLEHVMENYTQWLQKLENYIVENMKSEMAQIQQNAVQNHTATMLEIGTSLLSQTAEQTRKLTDVETQVLNQTSRLEIQLLENSLSTYKLEKQLLQQTNEILKIHEKNSLLEHKILEMEGKHKEELDTLKEEKENLQGLVTRQTYIIQELEKQLNRATTNNSVLQKQQLELMDTVHNLVNLCTKEGVLLKGGKREEEKPFRDCADVYQAGFNKSGIYTIYINNMPEPKKVFCNMDVNGGGWTVIQHREDGSLDFQRGWKEYKMGFGNPSGEYWLGNEFIFAITSQRQYMLRIELMDWEGNRAYSQYDRFHIGNEKQNYRLYLKGHTGTAGKQSSLILHGADFSTKDADNDNCMCKCALMLTGGWWFDACGPSNLNGMFYTAGQNHGKLNGIKWHYFKGPSYSLRSTTMMIRPLDF | dramatic amelioration of disease | resolution of epidermal hyperplasia |
